Source: article PMC10329844, “Regulatory architecture of housekeeping genes is driven by promoter assemblies”

Legend:
[1] = biological target: T1, Ronin (Thap11), Prospec PRO-2009 (UniProt Q96EK4 1-314); assay: competition; abolishes Ronin-stimulated circularization of N3; Circularization: 1x T4 ligase buffer, 100 ng DNA, 1.358 uM protein, 10 uL, 25 min RT, then ligase 20 min RT. AFM: 1x LightShift binding buffer, 350 mM KCl, 1 mM EDTA, 6% glycerol, 10 min on ice, then 0.4x T4 ligase buffer, 20% glycerol, 1 mM EDTA, 2 mM GTP, 30 min RT; conditions: protein: commercial; blunt
[2] = biological target: T1, Ronin (Thap11), Prospec PRO-2009; assay: competition; no effect on Ronin-stimulated circularization of N3; Circularization: 1x T4 ligase buffer, 100 ng DNA, 1.358 uM protein, 10 uL, 25 min RT, then ligase 20 min RT. AFM: 1x LightShift binding buffer, 350 mM KCl, 1 mM EDTA, 6% glycerol, 10 min on ice, then 0.4x T4 ligase buffer, 20% glycerol, 1 mM EDTA, 2 mM GTP, 30 min RT; conditions: protein: commercial; blunt

T1 sequence (Q96EK4 whole entry): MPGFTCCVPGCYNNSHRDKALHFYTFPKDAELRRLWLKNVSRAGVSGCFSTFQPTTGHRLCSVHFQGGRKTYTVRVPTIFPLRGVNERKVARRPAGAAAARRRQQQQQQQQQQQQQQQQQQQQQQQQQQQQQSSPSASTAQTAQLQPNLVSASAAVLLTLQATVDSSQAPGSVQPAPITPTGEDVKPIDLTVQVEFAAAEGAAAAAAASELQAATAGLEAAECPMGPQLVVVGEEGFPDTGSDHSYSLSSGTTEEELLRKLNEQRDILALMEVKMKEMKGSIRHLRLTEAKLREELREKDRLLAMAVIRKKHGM

| Binder | binding result [1] | binding result [2] |
| --- | --- | --- |
| C1 competitor (RBM in random flanks) (dsDNA) DNA 1: ACTAGCTCTCTGGGAATTGTAGTTCGGCAATCTCT DNA 2: AGAGATTGCCGAACTACAATTCCCAGAGAGCTAGT | binds | – |
| C2 competitor (both RBM half-sites mutated) (dsDNA) DNA 1: ACTAGCTCTTGATTCCGGAGCTGGAGGCAATCTCT DNA 2: AGAGATTGCCTCCAGCTCCGGAATCAAGAGCTAGT | – | no binding |
